# Reference: patent US20250320284A1 (AC IMMUNE, published 2025)
# Substitutions are numbered along the chain they refer to.
# T1: mouse ASC (mouse, UniProt Q9EPB4 1-193)
# T1 construct: recombinant mASC in ELISA and SPR; endogenous ASC of J774.A1 cells in Western blot and immunofluorescence; also called mASC
# T1 sequence: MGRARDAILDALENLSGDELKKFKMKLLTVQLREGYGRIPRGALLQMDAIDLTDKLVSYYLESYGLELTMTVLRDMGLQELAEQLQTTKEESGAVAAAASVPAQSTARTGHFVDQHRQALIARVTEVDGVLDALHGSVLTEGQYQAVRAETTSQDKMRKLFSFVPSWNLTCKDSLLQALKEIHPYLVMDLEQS
# T2: CARD domain of human ASC (human, UniProt Q9ULZ3 107-195)
# T2 construct: biotinylated in BLI; also called hCARD; human CARD
# T2 sequence: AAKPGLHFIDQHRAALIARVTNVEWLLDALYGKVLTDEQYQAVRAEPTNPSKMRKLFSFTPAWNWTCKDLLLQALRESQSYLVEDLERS
# B1: ACI-8016-23E5F7-AB1 (antibody, V domains shown)
# VH: QVQLQQSEAELARPGASVKLSCKASGYTFTSYGIFWVKQRTGQGLEWIGEIYPRSGNTYYNENFRDKATLTADKSSSTAYMELRSLTSEDSAVYFCARQRDDYWGQGTTLTVSS
# VL: QIVLTQSPAIMSASPGEKVTITCSVSSSVSYMYWFQQKPGTSPKVWIYSTSNLASGVPARFSGRGSGTSYSLTISRMEAEDAATYYCQQRSSYPFTFGSGTKLEIK
# notes: also called 936.23E5F7
# B2: ACI-8016-413G10A5-AB1 (antibody, V domains shown)
# VH: QVQLKESGPGLVAPSQSLSITCTVSGFSLTSYGVHWVRQPPGKGLEWLGVIWAGGSTNYNSALMSRLSISKDNSKSQVFLKMNSLQTADTAMYYCARWDYVNSYEAMDYWGQGTSVTVSS
# VL: DVVMTQTPLSLPVSLGDQASISCRSSQSLVHSNGNTYLHWYLQKPGQSPKLLIYKVSNRFSGVPDRFSGSGSGTDFTLKISRVEAEDLGVYFCSQSTHVPYTFGGGTKLEIK
# B3: ACI-8019-2314F6H11-AB1 (antibody, V domains shown)
# VH: QVQVQQSGADLARPGASVKLSCKASGYTFTNYGINWVKQRTGQGLEWIGEIYPKNIDIYYNEKFKGKATLTADKSSSTAYMELRSLTSEDSAVYFCGRSSFGFSGNYAMDYWGQGTSVTVSS
# VL: B2 VL with S28N, V30I, N35I, D65H, Y101W
# B4: ACI-8016-203B12C3-AB1 (antibody, V domains shown)
# VH: QVQLKQSGPGLVQPSQSLSITCKVSDFSLSHYGVHWVRQSPGKGLEWLGVIWSGGTTEYNEAFISRLTISKDNSKSQILFRMNSLQPADTAIYYCARKGDFYGDYFDYWGQGTTLTVSS
# VL: DIQMTQTSSSLSASLGDRVTISCRASQDISNYLNWYQQRPDGTVKLLIYYTSKVHSGVPSRFSGSGSGTDFSLTISNLEQEDFATYYCQQGNTRPFTFGGGTKLEIK
# B5: ACI-8016-416E6G4-AB1 (antibody, V domains shown)
# VH: QVQLKQSGPGLVQPSQSLSITCTVSGISLSSYGLHWVRQSPGKGLEWLGVIWSGGNTDYSATFISRLSISKDNSKSQVFFKMDSLQVDDTAIYYCARNEVWGQGTSVTVSS
# VL: not shown
# B6: ACI-8016-2610H7D3-AB1 (antibody, V domains shown)
# VH: QVQLQQSGVELARPGASVKLSCKASGFSFTSYGISWVKQKTGQGLEWIGQIYLRSSNTYYSEKFKDRATLTADKSSSTVYMELRSLTSEDSAVYFCARYYGSSSDYWGQGTTLTVSS
# VL: DIQMNQSPSSLSASLGDTITINCHASQNINVWLSWYQQKPGNIPKVLINQASNLQTDVPTRFSGSGSGTDFKLIISRLQSEDIATYYCQQGQSYPWTFGGGTKLEIK
# B7: ACI-8016-401H9B7-AB1 (antibody, V domains shown)
# VH: QIQLVQSGPELKKPGETVKISCKASGYTFTKYGMNWVKQAPGKGLKRMGWINTYTGEPTYSDDFKGRFAFSLETSASTAYLQINNLKNDDTATYFCARLGYANSFDSWGQGTTLTVSS
# VL: DIQMTQSPASLSATVGETVTITCRASENIYTYLAWYQQKQGKSPQLLVHNANTLVEGVPSRFSGSGSGTQFSLKINSLEPEDFGNYYCQYHYGSPYTFGGGTKLEIK
# What was measured:
# mouse ASC [1] = biological target: T1, mouse ASC; assay: SPR affinity mode, mAb captured;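 further: Single-cycle SPR kinetics with mAbs captured on goat anti-mouse antibody, double-referenced against blank flow cell and buffer cycle, fitted by a 1:1 kinetic model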
# CARD domain of human ASC [2] = biological target: T2, CARD domain of human ASC; assay: ELISA, coated hCARD
# PYD domain of human ASC [3] = biological target: T3, PYD domain of human ASC (human, UniProt Q9ULZ3 1-91, limits assumed); assay: ELISA, coated hPYD;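 further: monoclonal antibody binding to plate-coated human ASC PYD measured by ELISA, with a phosphatase substrate absorbance read-out and EC50 from a variable slope curve fit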
# T3 construct: biotinylated in BLI; His/MBP-tagged in the alanine ELISA; also called hPYD; human PYD
# mouse ASC [4] = biological target: T1, mouse ASC; assay: cell-based or functional assay
# [5] = biological target: T4, human ASC (apoptosis associated speck-like protein containing a caspase-recruitment domain) (human, UniProt Q9ULZ3 1-195); assay: cell-based or functional assay
# mouse ASC [6] = biological target: T1, mouse ASC; assay: ELISA, coated mASC
# [7] = biological target: T4, human ASC (apoptosis associated …); assay: SPR affinity mode, steady-state fit, apparent KD
# mouse ASC [8] = biological target: T1, mouse ASC; assay: cell-based or functional assay; remark: listed apart in the source
# [9] = biological target: T4, human ASC (apoptosis associated …); assay: ELISA, coated hASC;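 further: antibody binding to plate-coated recombinant human ASC, read as phosphatase substrate absorbance, EC50 from four-parameter variable-slope fit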
# mouse ASC [10] = biological target: T1, mouse ASC; assay: Western blot, J774.A1 mouse macrophage lysate
# [11] = biological target: T4, human ASC (apoptosis associated …); assay: SPR affinity mode, mAb captured;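 further: Single-cycle SPR kinetics with mAbs captured on goat anti-mouse antibody, double-referenced against blank flow cell and buffer cycle, fitted by a 1:1 kinetic model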
# [12] = biological target: T4, human ASC (apoptosis associated …); assay: SPR avidity mode, ASC immobilized;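 further: Single-cycle SPR kinetics on Biacore T200, antibodies injected at 1.2–100 nM (3-fold steps), 300 s association, 900 s dissociation, double-referenced, 1:1 kinetic model fit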
# mouse ASC [13] = biological target: T1, mouse ASC; assay: SPR avidity mode, ASC immobilized;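 further: Single-cycle SPR kinetics on Biacore T200, antibodies injected at 1.2–100 nM (3-fold steps), 300 s association, 900 s dissociation, double-referenced, 1:1 kinetic model fit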
# [14] = biological target: T4, human ASC (apoptosis associated …); assay: SPR affinity mode, mAb captured; SPR affinity mode, mAb captured by Fc, hASC 2.2-180 nM in solution;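 on koff: Single-cycle SPR kinetics with mAbs captured on goat anti-mouse antibody, double-referenced against blank flow cell and buffer cycle, fitted by a 1:1 kinetic model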
# [15] = biological target: T4, human ASC (apoptosis associated …); assay: SPR avidity mode, ASC immobilized; SPR avidity mode, hASC covalently immobilized, mAb as analyte;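 on koff: Single-cycle SPR kinetics on Biacore T200, antibodies injected at 1.2–100 nM (3-fold steps), 300 s association, 900 s dissociation, double-referenced, 1:1 kinetic model fit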;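 on kon: Single-cycle SPR kinetics on Biacore T200, antibodies injected at 1.2–100 nM (3-fold steps), 300 s association, 900 s dissociation, double-referenced, 1:1 kinetic model fit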
# [16] = biological target: T4, human ASC (apoptosis associated …); assay: ELISA, coated hASC; ELISA on hASC protein
# mouse ASC [17] = biological target: T1, mouse ASC; assay: SPR affinity mode, mAb captured; SPR affinity mode, mAb captured by Fc, mASC in solution;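 on KD: Single-cycle SPR kinetics with mAbs captured on goat anti-mouse antibody, double-referenced against blank flow cell and buffer cycle, fitted by a 1:1 kinetic model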
# mouse ASC [18] = biological target: T1, mouse ASC; assay: ELISA, coated mASC; ELISA on mASC protein
# mouse ASC [19] = biological target: T1, mouse ASC; assay: SPR avidity mode, ASC immobilized; SPR avidity mode, mASC covalently immobilized, mAb as analyte
# PYD domain of human ASC [20] = biological target: T3, PYD domain of human ASC; assay: BLI binning on PYD, competitor 22D3A6-AB1
# PYD domain of human ASC [21] = biological target: T3, PYD domain of human ASC; assay: BLI binning on PYD, competitor 26A1G2-AB1
# CARD domain of human ASC [22] = biological target: T2, CARD domain of human ASC; assay: sandwich ELISA on MBP-tagged protein captured by anti-MBP antibody, signal as % of hPYD-WT
# PYD domain of human ASC [23] = biological target: T3, PYD domain of human ASC; assay: BLI binning on PYD, competitor 2626B9D3-AB1
# PYD domain of human ASC [24] = biological target: T3, PYD domain of human ASC; assay: BLI binning on PYD, competitor 2610H7D3-AB1
# PYD domain of human ASC [25] = biological target: T3, PYD domain of human ASC; assay: BLI binning on PYD, competitor 23E5F7-AB2
# PYD domain of human ASC [26] = biological target: T3, PYD domain of human ASC; assay: BLI binning on PYD, competitor 2617C3A8-AB1
# PYD domain of human ASC [27] = biological target: T3, PYD domain of human ASC; assay: BLI binning on PYD, competitor 31F10C5-AB1
# [28] = biological target: T4, human ASC (apoptosis associated …); assay: cell-based or functional assay; remark: listed apart in the source
# PYD domain of human ASC [29] = biological target: T3, PYD domain of human ASC; assay: BLI binning on PYD, competitor 401H9B7-AB1
# PYD domain of human ASC [30] = biological target: T3, PYD domain of human ASC; assay: BLI binning on PYD, competitor 416E6G4-AB1
# CARD domain of human ASC [31] = biological target: T2, CARD domain of human ASC; assay: sandwich ELISA on MBP-tagged protein captured by anti-MBP antibody, signal as % of hPYD-WT; remark: listed apart in the source
# T3 sequence (Q9ULZ3 1-91 limits assumed): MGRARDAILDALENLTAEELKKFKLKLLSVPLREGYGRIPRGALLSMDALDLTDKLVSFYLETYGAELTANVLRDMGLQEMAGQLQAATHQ
Binder,Kd (mouse ASC [1]) [pM],koff (mouse ASC [1]) [s⁻¹],EC50 (PYD domain of human ASC [3]) [pM],"Human ASC polymerization assay, IC50 [5] [pM]",EC50 (mouse ASC [6]) [pM],EC50 [9] [pM],Kd [11] [pM],koff [11] [s⁻¹],kon [11] [M⁻¹ s⁻¹],Kd [12] [pM],koff [12] [s⁻¹],kon [12] [M⁻¹ s⁻¹],further results
B1,10400,0.00264,130,5800,150,120,–,–,–,–,–,–,"kon (mouse ASC [1]): 261000 M⁻¹ s⁻¹; binding result (CARD domain of human ASC [2]): no binding; Mouse ASC polymerization assay, IC50 (mouse ASC [4]): 21000 pM; Kd [7]: 27100 pM; % IL-1β inhibition, mouse primary microglia, 420 nM mAb (mouse ASC [8]): 69.4%"
B2,–,–,–,–,–,50,130,2.2e-05,160000,10,1.2e-06,92000,binding result (mouse ASC [10]): no binding; EC50 (CARD domain of human ASC [2]): 60 pM; binding result (PYD domain of human ASC [3]): no binding
B3,–,–,–,–,200,100,–,–,–,910,8e-05,88000,Kd (mouse ASC [13]): 16100 pM
B4,–,–,–,–,–,–,–,–,–,–,–,–,EC50 (CARD domain of human ASC [2]): 67 pM; Kd [14]: 42000 pM; binding result (PYD domain of human ASC [3]): no binding; Kd [15]: 10200 pM; EC50 [16]: 100 pM
B5,14500,0.00053,70,–,–,70,14900,0.0025,280000,850,2.7e-05,39000,binding result (CARD domain of human ASC [2]): no binding; kon (mouse ASC [17]): 34000 M⁻¹ s⁻¹; EC50 (mouse ASC [18]): 70 pM; Kd (mouse ASC [19]): 4880 pM; koff (mouse ASC [19]): 0.00013 s⁻¹; kon (mouse ASC [19]): 35000 M⁻¹ s⁻¹
B6,410,0.000339,160,10100,270,190,270,0.000201,747000,–,–,–,"kon (mouse ASC [1]): 831000 M⁻¹ s⁻¹; normalized binding response (PYD domain of human ASC [20]): 2%; normalized binding response (PYD domain of human ASC [21]): 1%; Mouse ASC polymerization assay, IC50 (mouse ASC [4]): 60400 pM; binding result (CARD domain of human ASC [22]): no binding; normalized binding response (PYD domain of human ASC [23]): 80%; normalized binding response (PYD domain of human ASC [24]): 1%; % IL-1β inhibition, mouse primary microglia, 420 nM mAb (mouse ASC [8]): 87.3%; normalized binding response (PYD domain of human ASC [25]): 0%; normalized binding response (PYD domain of human ASC [26]): 0%; normalized binding response (PYD domain of human ASC [27]): 2%; IL-1β release, human monocytic cell line, IC50 [28]: 25200 pM; normalized binding response (PYD domain of human ASC [29]): 73%; normalized binding response (PYD domain of human ASC [30]): 6%"
B7,–,–,60,3100,–,100,< 10,< 1e-05,96000,< 10,2.3e-07,74000,"normalized binding response (PYD domain of human ASC [20]): 90%; normalized binding response (PYD domain of human ASC [21]): 24%; binding result (CARD domain of human ASC [31]): no binding; normalized binding response (PYD domain of human ASC [23]): 3%; normalized binding response (PYD domain of human ASC [24]): 108%; normalized binding response (PYD domain of human ASC [25]): 83%; normalized binding response (PYD domain of human ASC [26]): 112%; normalized binding response (PYD domain of human ASC [27]): 95%; IL-1β release, human monocytic cell line, IC50 [28]: 6940 pM; normalized binding response (PYD domain of human ASC [29]): 3%; normalized binding response (PYD domain of human ASC [30]): 47%"
